Drawing on US20260317430 (published 2026), this text covers Kd and EC50 for 20 molecules.

Numbering of substitutions follows the chain as printed.

The labels stand for the following.
B1: 3A3 (antibody, V domains shown)
VH: QVQLQQSGAELVKPGASVKMSCKASGYTFTTYNIHWVRQTPGQGLEWIGLIYPDNGDTSYNQKFKAKATLTADKSSSTAYMHLSSLTSEDSAVYYCARGGFDYWGQGTTLTVSS
VL: DIVMTQSHKFMSTSVGDRVSITCKASQDVNTDVSWYQQKPGQSPKLLIYSASYRYTGVPTRFTGSGSGTDFTFTISGVQAEDLADYYCQQHYNTPYTFGGGTRLEIK
B2: 3E1 (antibody, V domains shown)
VH: QVQLQQPGAEVVKPGASVKMSCKASGYTFTDYYIHWVKQTPGQGLEWIGAIYPDNGDTSYNQKFKVKATLTADKSSSTAYMQLSSLTSEDSAVYYCARAFTYWGQGTLVTVSA
VL: DILITQSPASLSASVGETVTITCGASENIYGALNWYQRKQGKSPQLLIYGATNLADGMSSRFSGSGSGRQYSLKISSLHPDDVATYYCQNVLSTPYTFGGGTKLEIK
B3: 3C7 (antibody, V domains shown)
VH: EIQLQQSGAELVKPGASVKMSCKASGYIFRNYYIHWVKRTPGQGLEWIGAIYPDNGDTSYNQRFKVKATLTADTSSSTAYMQLSSLTSEDSAVYYCARAFTYWGQGTTLTVSS
VL: B2 VL with L3Q, I4M, T5I
B4: 2B1 (antibody, V domains shown)
VH: EVQLQQSGAELVKPGASVKMSCKASGYTFASYNLHWVKQTPGQGLEWIGLIYPENGDTSYNQKFKGKATLTADKSSSTAYIQLSSLTSEDSAVYFCARGGFDYWGQGTSLTVSS
VL: DIQMIQSPASLSVSVGETVTITCRASENIYSNLAWYQQKQGKSPQLLVYNAKTLADGVPSRFSGSGSGTQYSLKINSLQPEDFGSYYCQHFWSTPYTFGGGTKLEIK
B5: 1B8 (antibody, V domains shown)
VH: B4 VH with E1Q, V2I, K74T, S77T
VL: B2 VL with L3K, I4M
B6: 3D7 (antibody, V domains shown)
VH: QVQLQQSGAELVKPGASVKMSCKASGYTFSFYNMHWVKRTPGRGLEWIGLIYPDNGDTSYNQKFKGKATLTADTSSSTAYMQLSSLTSEDSAVYYCARGGLDYWGQGTSLTVSS
VL: EIVLTQSPASLAVSLGQRATISCKASQSVDYDGDSYMNWYQQKPGQPPKLLIYGISNRFSGVPDRFSGSGSGTDFTLKISTIKPEDLGMYYCLQGTHQPYTFGGGTKLEIK
B7: 3E7 (antibody, V domains shown)
VH: B1 VH with T31I, H82Q
VL: NIVMTQSQKFMSTSVGDRVSVTCKASQNVGTNVAWYQQKPGQSPKALIYSASYRYSGVPDRFTGSGSGTDFTLTISGVQAEDLADYYCQQHYNTPYTFGGGTKLEIK
B8: 3A12 (antibody, V domains shown)
VH: B1 VH with Q1E, T30S, T31F, I34V, T78A, H82Q, T109S
VL: DIVMTQSHKFMSTSVGDRVNITCKASQDVSTAVAWYQQKPGQSPKLLIYSASYRYSGVPDRFTGSGSGTDFTFTISSVQAEDLAVYYCQQHYSTPYTFGGGTKLEMK
B9: 3B7 (antibody, V domains shown)
VH: B6 VH with Q1E, S30R, F31Y, R43Q, L101F, S109T
VL: B2 VL with L3Q, I4M, I106L
B10: 3A8 (antibody, V domains shown)
VH: B1 VH with T31I, H82Q, T109S
VL: B7 VL with N1D, G77N, Y87F, N93S, I106M
B11: 3C9 (antibody, V domains shown)
VH: B6 VH with Q1E, V2I, T28I, S30R, F31Y, R43Q, S109T
VL: B2 VL with L3Q, I4M, T5I
B12: 3F10 (antibody, V domains shown)
VH: B1 VH with Q1E, T30S, T31F, H82Q
VL: B2 VL with I2V, I4M
B13: 3H9 (antibody, V domains shown)
VH: B6 VH with Q1E, V2I, R43Q, S109T
VL: B4 VL with Q3V, M4L, I5T, N50A, K52T, T53N, P80S, S93G, I106L
B14: 1D7 (antibody, V domains shown)
VH: B6 VH with V2I, S30R, F31Y, R43Q
VL: DIQMTQSPSSMSASLGDRITITCQATQDIVKNLNWYQQKPGKPPSFLIYYATELAEGVPSRFSGSGSGSDYSLTISNLESEDFADYYCLQFYEFPLTFGAGTKLELK
B15: 3F11 (antibody, V domains shown)
VH: B1 VH with T30A, T31P, H82Q, T109S
VL: B7 VL with N1D, G77N, A80S, D85E, Y87F, N93S, Y96F, G100S
B16: 3E3 (antibody, V domains shown)
VH: B6 VH with S7P, E10V, K19R, S30P, F31Y, M34V, R43Q, K65T, S109T, S114A
VL: B2 VL with I2V, L3Q
B17: 3B4 (antibody, V domains shown)
VH: B6 VH with Q1E, E10D, F31Y, K38R, R43Q, S109T
VL: B2 VL with L3Q, I4M, T5I, L11M, I106M
B18: 3D6 (antibody, V domains shown)
VH: B6 VH with S30R, F31Y, R43Q
VL: B4 VL with I5T, Y96F, G100S, I106L
B19: 3F5 (antibody, V domains shown)
VH: B6 VH with Q1E, V2I, S30R, F31Y, R43Q, S109T
VL: B2 VL with L3V, I4L
B20: 3H6 (antibody, V domains shown)
VH: B1 VH with T30S, T31F, H82Q
VL: B4 VL with I5T, V13A, N32Y, D56E, Y71F, F91H, W92Y, S93G, I106M

T2 sequence (P21802 22-377): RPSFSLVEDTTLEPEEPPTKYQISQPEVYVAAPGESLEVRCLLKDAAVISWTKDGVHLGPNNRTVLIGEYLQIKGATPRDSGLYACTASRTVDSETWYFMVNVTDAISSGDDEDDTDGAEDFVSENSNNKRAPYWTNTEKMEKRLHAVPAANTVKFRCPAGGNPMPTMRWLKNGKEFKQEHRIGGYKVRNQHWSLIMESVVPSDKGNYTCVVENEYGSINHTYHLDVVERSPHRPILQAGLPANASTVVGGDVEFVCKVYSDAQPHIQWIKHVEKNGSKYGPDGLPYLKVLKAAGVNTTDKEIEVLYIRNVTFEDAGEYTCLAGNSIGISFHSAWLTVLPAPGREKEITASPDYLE

The target of the first test is T1, mouse FGFR2b (mouse, UniProt P21803).
T1 chain: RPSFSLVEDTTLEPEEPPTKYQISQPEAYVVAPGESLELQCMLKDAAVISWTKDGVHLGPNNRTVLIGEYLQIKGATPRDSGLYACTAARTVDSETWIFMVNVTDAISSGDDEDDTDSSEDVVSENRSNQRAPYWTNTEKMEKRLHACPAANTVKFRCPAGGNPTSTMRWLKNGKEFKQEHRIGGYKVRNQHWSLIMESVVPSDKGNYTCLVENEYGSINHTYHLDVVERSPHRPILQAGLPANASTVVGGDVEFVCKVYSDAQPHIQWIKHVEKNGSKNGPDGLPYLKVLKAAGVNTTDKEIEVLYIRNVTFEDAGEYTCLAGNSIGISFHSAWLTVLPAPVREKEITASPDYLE
In words: BLI.
B1 yielded a Kd of 39.6 nM.
Still for that read-out and setting: as for B2, the figure is 21.8 nM; as for B3, 8.71 nM; as for B4, 23 nM.
In turn, B5 registered a Kd of 74.9 nM.
Same read-out and setting: as for B6, the figure is 81.7 nM; as for B7, 40.9 nM; as for B8, 10.7 nM.
Still for that read-out and setting: then B9, with 33.9 nM; and B10, with 7.17 nM; and B11, with 9.95 nM.
Same read-out and setting: as for B12, the figure is 52.5 nM.
With B13, binding was put at a Kd of 23.8 nM.
For the molecule B14, the dissociation constant (Kd) was found to be 27.6 nM.
As for B15, the Kd was 26 nM.
On the same count and under the same terms, as for B16, the figure is 52.7 nM; as for B17, 27.3 nM.
On the same count and under the same terms, as for B18, the figure is 21.7 nM.
On the same count and under the same terms, then B19, with 36.1 nM; and B20, with 43.7 nM.

A further test concerns the target T2, human FGFR2b extracellular domain (human, UniProt P21802). In words: BLI. A general note: In BLI a coated tip is dipped into the sample, and binding shifts an interference pattern.
Molecule B1 returned a Kd of 3.71 nM.
For B2, binding was characterised by a dissociation constant (Kd) of 4.5 nM. This Kd and that of the molecule before are within 1.5-fold of each other.
As for B3, the equilibrium dissociation constant (Kd) worked out at 3.99 nM.
B4 gave an equilibrium dissociation constant (Kd) of 6.67 nM.
Consider B5, for which binding was characterised by a dissociation constant (Kd) of 13.3 nM.
Same read-out and setting: then B6, with 8.58 nM; and B7, with 4.35 nM.
Same read-out and setting: then B8, with 2.82 nM; and B9, with 7.6 nM.
Regarding B10, the dissociation constant (Kd) turned out to be 3.48 nM. This Kd is about 2.2-fold lower than that of the molecule before.
Same read-out and setting: as for B11, the figure is 2.7 nM; as for B12, 7.62 nM; as for B13, 5.69 nM.
Still for that read-out and setting: as for B14, the figure is 4.51 nM.
For B15, the Kd came to 6.13 nM. This Kd and that of the molecule before are within 1.5-fold of each other.
In the case of B16, the dissociation constant (Kd) was 8.18 nM. The Kd values of the last two molecules are within 1.5-fold of each other.
In turn, B17 gave a Kd of 6.28 nM.
Same read-out and setting: then B18, with 15 nM.
B19 returned a dissociation constant (Kd) of 5.1 nM. Compared with the last molecule, the Kd is about 2.9-fold lower.
Molecule B20 returned a Kd of 8.41 nM.

Another test deals with human FGFR2b on KATO III cells (human, UniProt P21802). In words: FACS. For orientation: Flow cytometry measures light scatter and fluorescence of single cells or particles in a stream.
Sequence of human FGFR2b on KATO III cells (P21802 22-377): as the sequence (P21802 22-377) above
For B1, the EC50 was determined as 0.236 µg/mL.
Molecule B2 had a half-maximal effective concentration (EC50) of 0.132 µg/mL.
B3 registered an EC50 of 0.2 µg/mL.
On the same count and under the same terms, as for B4, the figure is 0.195 µg/mL; as for B5, 0.133 µg/mL.
On the same count and under the same terms, as for B6, the figure is 0.259 µg/mL; as for B7, 0.298 µg/mL; as for B8, 0.292 µg/mL.
On the same count and under the same terms, as for B9, the figure is 0.117 µg/mL; as for B10, 0.199 µg/mL; as for B11, 0.253 µg/mL.
Take B12: the EC50 stood at 0.159 µg/mL.
Still for that read-out and setting: then B13, with 0.161 µg/mL.
The same measure, in the same setting: then B14, with 0.167 µg/mL; and B15, with 0.164 µg/mL.
Still for that read-out and setting: then B16, with 0.376 µg/mL; and B17, with 0.168 µg/mL; and B18, with 0.136 µg/mL.
The molecule B19 had an EC50 of 0.105 µg/mL.
Same read-out and setting: as for B20, the figure is 0.226 µg/mL.

The next test deals with T2, human FGFR2b extracellular domain. In words: ELISA. (ELISA stands for enzyme-linked immunosorbent assay.)
Molecule B1 returned an EC50 of 0.0216 µg/mL.
The molecule B2 yielded an EC50 of 0.0156 µg/mL.
Still for that read-out and setting: as for B3, the figure is 0.0166 µg/mL; as for B4, 0.0276 µg/mL.
In turn, B5 showed an EC50 of 0.0273 µg/mL.
In turn, B6 showed a half-maximal effective concentration (EC50) of 0.0369 µg/mL.
Take B7: it took 0.0154 µg/mL to reach a half-maximal effect (EC50).
In turn, B8 had a concentration giving a half-maximal response (EC50) of 0.0128 µg/mL.
With B9, the EC50 was 0.0147 µg/mL.
Same read-out and setting: as for B10, the figure is 0.0278 µg/mL; as for B11, 0.0147 µg/mL.
The same measure, in the same setting: then B12, with 0.00818 µg/mL; and B13, with 0.0278 µg/mL.
In turn, B14 returned an EC50 of 0.0154 µg/mL. Compared with the last molecule, the EC50 is about 1.8-fold lower.
The same measure, in the same setting: then B15, with 0.0156 µg/mL; and B16, with 0.0273 µg/mL.
Still for that read-out and setting: as for B17, the figure is 0.0166 µg/mL.
Same read-out and setting: as for B18, the figure is 0.0369 µg/mL.
In turn, B19 gave a 50% effective concentration (EC50) of 0.0159 µg/mL.
Still for that read-out and setting: then B20, with 0.0128 µg/mL.

The Kd is the constant that tells how readily two partners part at equilibrium. A higher Kd goes with a looser complex. As usually defined, the EC50 is the concentration that produces a half-maximal response.
